Results reported in paper PMC6173284.

Target: His-tagged Vps5 dimer from Chaetomium thermophilum (Chaetomium thermophilum)
Test: SEC-MALS

stoichiometry N: 2
Substance: His-tagged Vps5 dimer from Chaetomium thermophilum (natural protein)
